Reference: patent US20240132883A1, “RNA-TRIGGERED PROTEIN CLEAVAGE AND APPLICATIONS BY THE CRISPR CAS7-11-CSX29 COMPLEX” (Massachusetts Institute of Technology, published 2024)
“Also recorded” adds a separate entry of the source. Read-outs that look alike come from different tables or passages of the source. One block for each molecule: values may come before it.

Experiments:
[1] = target: N-terminally FLAG-tagged citrine-Csx30-degron reporter (Desulfonema ishimotonii); assay: cell-based or functional assay
[2] = tested on: T1, D. ishimotonii Csx30, full-length
T1 sequence: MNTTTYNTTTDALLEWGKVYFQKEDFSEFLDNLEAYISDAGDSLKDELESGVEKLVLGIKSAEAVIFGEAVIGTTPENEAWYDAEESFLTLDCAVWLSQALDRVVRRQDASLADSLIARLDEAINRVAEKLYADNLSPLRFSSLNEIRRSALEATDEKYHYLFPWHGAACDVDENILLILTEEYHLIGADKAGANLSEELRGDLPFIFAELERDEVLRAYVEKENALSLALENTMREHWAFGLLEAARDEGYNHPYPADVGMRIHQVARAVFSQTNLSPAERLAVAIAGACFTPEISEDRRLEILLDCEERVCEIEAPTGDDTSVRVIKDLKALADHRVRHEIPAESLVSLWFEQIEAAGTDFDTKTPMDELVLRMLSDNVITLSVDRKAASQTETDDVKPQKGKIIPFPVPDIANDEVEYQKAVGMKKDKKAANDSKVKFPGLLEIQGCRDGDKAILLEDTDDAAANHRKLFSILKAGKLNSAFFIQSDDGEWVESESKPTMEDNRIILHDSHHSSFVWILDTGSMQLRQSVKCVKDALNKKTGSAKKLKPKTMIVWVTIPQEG

[3] = tested on: Cas7-11-Csx29 complex (mammalian codon-optimized) (Desulfonema ishimotonii); assay: cell_activity; settings: HEK293FT, citrine-Csx30-DHFR degron reporter
Cas7-11-Csx29 complex (mammalian codon-optimized) (Desulfonema ishimotonii), sequence (chain, as listed by the source): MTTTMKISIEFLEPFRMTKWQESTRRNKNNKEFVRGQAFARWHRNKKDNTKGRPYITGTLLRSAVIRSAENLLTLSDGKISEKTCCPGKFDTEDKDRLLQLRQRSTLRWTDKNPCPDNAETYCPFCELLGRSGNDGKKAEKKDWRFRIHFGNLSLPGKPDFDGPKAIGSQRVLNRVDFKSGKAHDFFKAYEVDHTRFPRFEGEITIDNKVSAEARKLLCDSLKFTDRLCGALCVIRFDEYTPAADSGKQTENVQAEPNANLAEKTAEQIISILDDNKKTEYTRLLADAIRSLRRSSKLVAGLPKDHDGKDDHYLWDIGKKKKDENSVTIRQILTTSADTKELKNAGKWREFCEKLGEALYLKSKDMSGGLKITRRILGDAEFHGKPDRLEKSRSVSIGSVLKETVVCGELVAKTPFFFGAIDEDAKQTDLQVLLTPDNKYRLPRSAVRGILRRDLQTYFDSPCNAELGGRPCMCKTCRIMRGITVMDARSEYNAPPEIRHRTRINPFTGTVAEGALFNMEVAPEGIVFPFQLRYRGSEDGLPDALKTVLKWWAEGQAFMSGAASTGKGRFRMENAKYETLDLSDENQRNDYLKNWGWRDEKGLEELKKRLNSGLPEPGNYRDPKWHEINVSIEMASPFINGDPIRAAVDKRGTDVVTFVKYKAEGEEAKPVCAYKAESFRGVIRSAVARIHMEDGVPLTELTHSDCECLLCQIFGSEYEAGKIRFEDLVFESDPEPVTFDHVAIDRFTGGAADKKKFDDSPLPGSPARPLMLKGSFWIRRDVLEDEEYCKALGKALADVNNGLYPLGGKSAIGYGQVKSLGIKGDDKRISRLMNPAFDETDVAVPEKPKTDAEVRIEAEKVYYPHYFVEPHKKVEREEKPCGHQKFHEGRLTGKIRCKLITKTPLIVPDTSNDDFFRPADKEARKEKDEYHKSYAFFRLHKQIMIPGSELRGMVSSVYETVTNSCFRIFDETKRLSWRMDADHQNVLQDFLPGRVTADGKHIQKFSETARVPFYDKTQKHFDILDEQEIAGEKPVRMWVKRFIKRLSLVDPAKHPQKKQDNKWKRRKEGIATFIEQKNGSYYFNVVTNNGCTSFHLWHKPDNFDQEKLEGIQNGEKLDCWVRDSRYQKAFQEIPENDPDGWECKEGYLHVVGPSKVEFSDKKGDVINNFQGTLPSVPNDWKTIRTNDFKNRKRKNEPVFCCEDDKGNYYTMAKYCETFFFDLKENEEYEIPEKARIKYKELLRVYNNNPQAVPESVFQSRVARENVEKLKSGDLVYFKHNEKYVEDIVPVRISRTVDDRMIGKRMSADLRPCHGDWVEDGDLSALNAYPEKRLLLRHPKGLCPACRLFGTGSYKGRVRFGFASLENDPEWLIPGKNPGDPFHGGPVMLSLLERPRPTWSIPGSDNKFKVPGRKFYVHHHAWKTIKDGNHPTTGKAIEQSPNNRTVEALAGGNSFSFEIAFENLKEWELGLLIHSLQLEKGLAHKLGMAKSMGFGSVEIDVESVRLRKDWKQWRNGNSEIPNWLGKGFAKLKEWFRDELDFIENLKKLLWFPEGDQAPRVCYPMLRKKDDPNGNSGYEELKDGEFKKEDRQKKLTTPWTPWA

[4] = target: T2, N-terminal fragment of Csx30 (residues 1-427) (Desulfonema ishimotonii); assay: gel filtration (Superdex 200 Increase) and SDS-PAGE after cleavage by dCas7-11-crRNA-Csx29-tgRNA
T2 construct: Made by Csx29 cleavage of Csx30 in the gel-filtration experiment; expressed as such in the growth assays; also called Csx30-1
T2 chain: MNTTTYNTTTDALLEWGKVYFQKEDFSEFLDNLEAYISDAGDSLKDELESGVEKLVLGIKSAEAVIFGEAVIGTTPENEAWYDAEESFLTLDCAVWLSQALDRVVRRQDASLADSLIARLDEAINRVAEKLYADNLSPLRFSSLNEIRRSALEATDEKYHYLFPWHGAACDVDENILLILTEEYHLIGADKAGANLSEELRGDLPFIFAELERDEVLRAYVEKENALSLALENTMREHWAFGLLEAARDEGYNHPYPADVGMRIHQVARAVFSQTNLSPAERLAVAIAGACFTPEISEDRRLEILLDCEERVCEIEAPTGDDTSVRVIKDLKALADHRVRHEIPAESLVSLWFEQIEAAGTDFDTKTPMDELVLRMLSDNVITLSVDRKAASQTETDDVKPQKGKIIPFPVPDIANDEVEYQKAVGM

[5] = target: T3, dCas7-11-Csx29 complex (Cas7-11 D429A/D654A with Csx29) (Desulfonema ishimotonii); assay: structure; cryo-EM 2.84 A; guide-target duplex with U4/C10 flipped out; PFS C(-1) and A(-2) contacted; no PAM; 1 mM MgCl2; settings: tags: MBP-Cas7-11-His6; His6-Twin-Strep-SUMO-Csx29
T3 sequence (chain, as listed by the source D429A D654A D429A D654A): as the sequence (chain, as listed by the source) above, with D429A, D654A counted along it
Method: (§1) The Cas7-11-crRNA-Csx29-tgRNA complex was reconstituted by mixing the purified Cas7-11-crRNA-Csx29 complex and the target RNA, at a molar ratio of 1:4. The complex was purified by size-exclusion chromatography on a Superose 6 Increase 10/300 column (GE Healthcare), equilibrated with buffer E (20 mM HEPES-NaOH, pH 7.0, 150 mM NaCl, 1 mM MgCl₂, and 1 mM DTT). The peak fraction containing Cas7-11-crRNA-Csx29-tgRNA was analyzed by TBE-urea gel, and concentrated to an A₂₆₀ of 3.0, using an Amicon Ultra-4 Centrifugal Filter Unit (MWCO 50 kDa). Cryo-EM grids were glow-discharged using PIB-10 Ion Bombarder (JEOL, Japan) with 10 mA current for 3 min. The sample (3 μL) was applied to freshly glow-discharged Au 300 mesh R1.2/1.3 grids (Quantifoil) in a Vitrobot Mark IV (FEI) at 4° C. under 100% humidity conditions, and the excess solution of the sample was blotted with filter paper (Agar Scientific) with a waiting time of 10 s and a blotting time of 4 s. The grids were plunge-frozen into liquid ethane cooled at liquid nitrogen temperature. […] The sample was applied onto freshly glow-discharged Au 300 mesh R0.6/1 grids (Quantifoil) in a Vitrobot Mark IV under similar conditions to those for the Cas7-11-crRNA-Csx29-tgRNA complex. […] Micrographs were recorded at a nominal magnification of ×105,000 with a pixel size of 0.83 Å in a total exposure of 48 e⁻/Å² per 48 frames with exposure time of 2.5 s. […]

[6] = target: T3, dCas7-11-Csx29 complex (Cas7-11 …); assay: structure; cryo-EM 2.49 A, target-free; 5' tag anchored by Cas7.1/Cas7.2; settings: tags: MBP-Cas7-11-His6; His6-Twin-Strep-SUMO-Csx29
Method: as §1

[7] = target: T4, D. ishimotonii Csx30, full-length
T4 chain: T1 sequence

citrine fluorescence in HEK293FT cells [1]: 3 fold
Molecule: Csx29, mammalian codon-optimized, expressed in HEK293FT cells with Cas7-11 (enzyme)

Molecule: Csx29 H615A/C658A (catalytically inactivated Csx29)
in vitro cleavage of Csx30 (SDS-PAGE) [2]: The H615A/C658A mutations in Csx29 abolished the Csx30 cleavage

Molecule: Gluc-targeting guide RNA ; Gaussia luciferase mRNA target
activity (fold citrine fluorescence) [3]: 3

binding result [4]: no binding
B1: C-terminal fragment of Csx30 (residues 428-565) (other)
chain: KKDKKAANDSKVKFPGLLEIQGCRDGDKAILLEDTDDAAANHRKLFSILKAGKLNSAFFIQSDDGEWVESESKPTMEDNRIILHDSHHSSFVWILDTGSMQLRQSVKCVKDALNKKTGSAKKLKPKTMIVWVTIPQEG
notes: Made by Csx29 cleavage of Csx30; also called Csx30-2

B2: crRNA (38 nt, 15-nt 5' tag + 23-nt spacer) ; target RNA with non-matching PFS (tgRNA/CTR) (ssRNA ; ssRNA)
RNA 1: UUGAUGUCACGGAACCUUUGUUGUCUUCGACAUGGGUA
RNA 2: GGAUUACCCAUGUCGAAGACAACAAAGCAAGGC
binding result [5]: binds

B3: crRNA (38 nt, 15-nt 5' tag + 23-nt spacer) (ssRNA)
RNA: B2 RNA 1
binding result [6]: binds

B4: D. ishimotonii Csx29, expressed as His6-Twin-Strep-SUMO-Csx29 (protein)
chain: HHHHHHMSNPIRDIQDRLKTAKFDNKDDMMNLASSLYKYEKQLMDSSEATLCQQGLSNRPNSFSQLSQFRDSDIQSKAGGQTGKFWQNEYEACKNFQTHKERRETLEQIIRFLQNGAEEKDADDLLLKTLARAYFHRGLLYRPKGFSVPARKVEAMKKAIAYCEIILDKNEEESEALRIWLYAAMELRRCGEEYPENFAEKLFYLANDGFISELYDIRLFLEYTEREEDNNFLDMILQENQDRERLFELCLYKARACFHLNQLNDVRIYGESAIDNAPGAFADPFWDELVEFIRMLRNKKSELWKEIAIKAWDKCREKEMKVGNNIYLSWYWARQRELYDLAFMAQDGIEKKTRIADSLKSRTTLRIQELNELRKDAHRKQNRRLEDKLDRIIEQENEARDGAYLRRNPPCFTGGKREEIPFARLPQNWIAVHFYLNELESHEGGKGGHALIYDPQKAEKDQWQDKSFDYKELHRKFLEWQENYILNEEGSADFLVTLCREIEKAMPFLFKSEVIPEDRPVLWIPHGFLHRLPLHAAMKSGNNSNIEIFWERHASRYLPAWHLFDPAPYSREESSTLLKNFEEYDFQNLENGEIEVYAPSSPKKVKEAIRENPAILLLLCHGEADMTNPFRSCLKLKNKDMTIFDLLTVEDVRLSGSRILLGACESDMVPPLEFSVDEHLSVSGAFLSHKAGEIVAGLWTVDSEKVDECYSYLVEEKDFLRNLQEWQMAETENFRSENDSSLFYKIAPFRIIGFPAE
cleavage of Csx30 within the Csx30-Csx31-DiRpoE complex (gel filtration, SDS-PAGE) [7]: Like isolated Csx30, Csx30 in the Csx30-Csx31-DiRpoE complex was cleaved by the Cas7-11-Csx29 complex
in vitro cleavage of Csx30 (SDS-PAGE) [7]: Cas7-11-crRNA-Csx29 cleaves Csx30 into two fragments, Csx30-1 (-50 kDa) and Csx30-2 (-15 kDa), only in the presence of the tgRNA; also recorded: the D429A/D654A catalytic mutations in Cas7-11 ... unexpectedly, improved the Csx30 cleavage by Csx29
in vitro cleavage of Csx30 (SDS-PAGE) with target RNAs TR, CTR, NTR [7]: Csx30 was cleaved by the Cas7-11-Csx29 complex efficiently in the presence of CTR, but not TR and NTR
